This note sets out measurements from US8349320 (LA JOLLA INSTITUTE FOR ALLERGY AND IMMUNOLOGY, dated 2013).

The target in experiment [1] is T1, mouse BTLA expressed on cells (mouse, UniProt Q7TSA3 30-306).
T1 construct: whole, on cells; the GFP part is not described further; also called mBTLA
T1 sequence (looked up): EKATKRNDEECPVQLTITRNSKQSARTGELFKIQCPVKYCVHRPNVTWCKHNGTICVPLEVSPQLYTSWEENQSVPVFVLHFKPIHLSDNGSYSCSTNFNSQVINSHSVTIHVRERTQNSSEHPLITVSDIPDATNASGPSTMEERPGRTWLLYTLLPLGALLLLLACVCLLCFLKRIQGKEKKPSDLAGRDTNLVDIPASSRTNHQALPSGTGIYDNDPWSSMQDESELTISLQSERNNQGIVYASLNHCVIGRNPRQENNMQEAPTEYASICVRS
Nature of the experiment: flow cytometry, graded hHVEM-Fc on cells expressing mouse BTLA (FIG. 3A).

Experiment [2] deals with T2, full length human LIGHT expressed on EL4 cells (human, UniProt O43557 1-240).
T2 construct: whole, on cells; also called EL4-hLIGHT; hLIGHT-EL4 cells
T2 sequence (O43557 whole entry): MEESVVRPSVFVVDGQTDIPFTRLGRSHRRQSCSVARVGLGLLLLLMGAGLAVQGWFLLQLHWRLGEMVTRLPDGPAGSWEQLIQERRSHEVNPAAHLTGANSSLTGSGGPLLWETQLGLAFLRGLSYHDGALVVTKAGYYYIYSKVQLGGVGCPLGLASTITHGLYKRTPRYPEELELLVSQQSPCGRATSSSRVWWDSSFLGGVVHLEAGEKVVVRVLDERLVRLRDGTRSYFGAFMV
The experiment is described as follows: flow cytometry saturation binding, Fc fusion on EL4 cells expressing human LIGHT.

The target of experiment [3] is T3, human BTLA expressed on cells (human, UniProt Q7Z6A9 31-289).
T3 construct: whole, on cells; also called hBTLA
Nature of the experiment: flow cytometry saturation binding, Fc fusion on cells expressing human BTLA (FIG. 3A).

In experiment [4] the target is T3, human BTLA expressed on cells. Nature of the experiment: flow cytometry saturation binding, Fc fusion on cells expressing human BTLA (FIG. 3B).
Experiment [5] deals with T1, mouse BTLA expressed on cells. Nature of the experiment: flow cytometry saturation binding, Fc fusion on cells expressing mouse BTLA (FIG. 3B). In general terms: Flow cytometry measures light scatter and fluorescence of single cells or particles in a stream.

B1: human HVEM-Fc (Fc fusion, UniProt Q92956 39-202, looked up)
chain: LPSCKEDEYPVGSECCPKCSPGYRVKEACGELTGTVCEPCPPGTYIAHLNGLSKCLQCQMCDPAMGLRASRNCSRTENAVCGCSPGHFCIVQDGDHCAACRAYATSSPGQRVQKGGTESQDTLCQNCPPGTFSPNGTLEECQHQTKCSWLVTKAGAGTSSSHWV
modifications: in the FIG. 3H assay biotinylated with NHS-PEO4-Biotin, 2 biotin molecules per HVEM-Fc (sites not given)
notes: extracellular domain; Ecto domain of the TNFR fused to Fc of human IgG1; also called hHVEM-Fc; hHVEM:Fc; not shown: Fc region of human IgG1
On to B1, for which, in experiment [1], the binding result is “no binding”. Besides, the dissociation constant Kd in experiment [2] was 11 nM; in experiment [3], 112 nM.

B2: mouse HVEM-Fc (Fc fusion, UniProt Q80WM9 39-206, looked up)
chain: QPSCRQEEFLVGDECCPMCNPGYHVKQVCSEHTGTVCAPCPPQTYTAHANGLSKCLPCGVCDPDMGLLTWQECSSWKDTVCRCIPGYFCENQDGSHCSTCLQHTTCPPGQRVEKRGTHDQDTVCADCLTGTFSLGGTQEECLPWTNCSAFQQEVRRGTNSTDTTCSSQ
notes: extracellular domain; Expressed in insect cells (baculovirus); also called mHVEM-Fc; mHVEM:Fc; not shown: Fc region of human IgG1
Turning to B2, the figures for the Kd in experiment [4] and in experiment [5] were 27 nM and 24 nM, respectively.

A word on the Kd: it is the equilibrium constant for the complex coming apart. Low readings indicate higher affinity, high ones lower affinity.
